The Immune Epitope Database (IEDB)

Target: HLA-A*01:01
Assay: IEDB peptide-MHC binding, purified MHC/competitive/radioactivity; ≥ and ≤ were set here for values at or beyond the usual limits of such assays
Conditions: source organism: Triticum aestivum

AMAMKIATA and CAAIHTIIH cannot be ordered by IC50: at least 100000 nM for the first, at least 100000 nM for the second.

FLLQQCKPV and FPQQQRPFI cannot be ordered by IC50: at least 100000 nM for the first, at least 100000 nM for the second.

LAMAMKIATA and LEAIRSLVL cannot be ordered by IC50: at least 100000 nM for the first, at least 100000 nM for the second.

LIPCRDVVL and LLQQCKPVSL cannot be ordered by IC50: at least 100000 nM for the first, at least 100000 nM for the second.

First: LLQQSKPASL
Second: LLSPRGKEL
The IC50 of the first is lower: 33500 nM for the first, at least 100000 nM for the second. The first is the more potent here.

LQQCKPVSL and MAMKIATAA cannot be ordered by IC50: at least 100000 nM for the first, at least 100000 nM for the second.

MKTFLILAL and MNIASASRL cannot be ordered by IC50: at least 100000 nM for the first, at least 100000 nM for the second.

First: QGMHILLPL
Second: QLEAIRSLV
The IC50 of the first is higher: at least 100000 nM for the first, 17100 nM for the second.

Going from SSQVLQQSTY to VMRQQCCQQL, the IC50 rises from 103 nM to at least 100000 nM. The first is the more potent here.

Compared with VSFQQPQQQY, WLQQQLVPQL is higher in IC50: 365 nM for the first, at least 100000 nM for the second. The first is the more potent here.

Target: HLA-B*08:01
Assay: as above
Conditions: source organism: Triticum aestivum

Going from AMAMKIATA to CAAIHTIIH, the IC50 rises from 48 nM to 465 nM (9.7-fold).

Compared with FLLQQCKPV, FPQQQRPFI is 14-fold higher in IC50: 7.8 nM for the first, 112 nM for the second. The first is the more potent here.

Compared with LAMAMKIATA, LEAIRSLVL is 1.9-fold higher in IC50: 161 nM for the first, 303 nM for the second. The first is the more potent here.

First: LIPCRDVVL
Second: LLQQCKPVSL
The IC50 of the first is 18-fold higher: 246 nM for the first, 14 nM for the second.

First: LLQQSKPASL
Second: LLSPRGKEL
The IC50 of the first is 3.6-fold lower: 25 nM for the first, 91 nM for the second.

Compared with LQQCKPVSL, MAMKIATAA is 14-fold lower in IC50: 72 nM for the first, 5.2 nM for the second. The second is the more potent here.

Going from MKTFLILAL to MNIASASRL, the IC50 rises from 223 nM to 368 nM (1.7-fold). The first is the more potent here.

First: QGMHILLPL
Second: QLEAIRSLV
The IC50 of the first is 4.8-fold lower: 73 nM for the first, 353 nM for the second.

Compared with SSQVLQQSTY, VMRQQCCQQL is lower in IC50: at least 100000 nM for the first, 162 nM for the second.

Compared with VSFQQPQQQY, WLQQQLVPQL is lower in IC50: at least 100000 nM for the first, 286 nM for the second.
